According to US20230345975A1, “COMPOSITIONS AND METHODS OF PRESERVING MEAT SUBSTITUTES” (Wisconsin Alumni Research Foundation, priority 2016, published 2023):

Target: soybean Hb (Lba) (Glycine max, UniProt P02238)
Test: Redness (a-value) of Lba solutions after exposure to 35 fc of light for 4 days
Details: 35 fc light, 4 days, main effect over niacin amounts
Protocol: FIG. 2—Effect of pH and different molar ratios of niacin to soybean Hb on the redness of Lba solutions. Measurement after exposure to 35 fc of light for 4 days
100 grams of meat analog containing a 3:1 dose of niacin would provide 5.9 mg niacin; a 6:1 dose would provide 11.8 mg niacin.

Chain of soybean Hb (Lba) (P02238 whole entry): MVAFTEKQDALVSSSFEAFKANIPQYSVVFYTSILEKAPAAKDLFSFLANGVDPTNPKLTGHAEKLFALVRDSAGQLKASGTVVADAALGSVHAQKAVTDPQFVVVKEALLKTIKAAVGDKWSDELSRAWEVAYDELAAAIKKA

B1: Lba: plant Hb (soybean hemoglobin; Lba) added to meat analog (protein, UniProt P02238 2-144, looked up)
Leghemoglobin 3: VAFTEKQDALVSSSFEAFKANIPQYSVVFYTSILEKAPAAKDLFSFLANGVDPTNPKLTGHAEKLFALVRDSAGQLKASGTVVADAALGSVHAQKAVTDPQFVVVKEALLKTIKAAVGDKWSDELSRAWEVAYDELAAAIKKA
Redness (a-value) at day 4 (pH 6.0): 4.72a
Redness (a-value) at day 4 (pH 6.3): 4.62ab
Redness (a-value) at day 4 (pH 6.6): 4.45b
Redness (a-value) at day 4 (pH 7.0): 3.99c
